Measurements as given in the supplement of paper PMC12455559.

Assay: purified protein yield per well (BCA); higher = higher soluble expression
Method in brief: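 The measured quantity is purified protein yield per well, determined with the Pierce Rapid Gold BCA kit. Anything below 25 ug (0.1 mg/mL) lies under the detection threshold. Enzymes were expressed in E. coli C41(DE3) in 2 mL autoinduction cultures with 100 µg/mL kanamycin at 37 °C for 2 h, then 18 °C for 40 h, and purified on an OT-2 robot using Ni-charged magnetic beads and SUMO protease release.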

Purified protein yield per well, < 25 µg:
RPAPATTAASQSTQRGPDPTVAMIEATRGPFATAQVSVPAGHGFGGGMIYYPTDTSQGTWGALAIVPGYSALFANEEAWMGPWLSSFGFVVIGVETNTRTDSDSQRAAEVLAALDYLTTQSPVRNEVDPARLSVLGHSAGGAGVIEAAEQRPSLRALIGLAPGYPGQGLSMATDQVPALVVGGQADTTVTPSYLANLYGTLPASTQSDFAQIAGADHVYYTHPNNVEMKLIIPWLKLFVDSDSRYEQFLCPSLPDPSTISAYQPKCPYTPPGGSSSSSSSSSSSSASSSSPTTPTTTTSSTPSTSCTATYQTQNSWPGGFQGLVTVTAGPAAISSWTVKWNLSSGQSITQVWSGTLSTSGSAVSVGNASYNGSLAPGASATFGFLADGSPSTPTLSCTGS [ESM120]
RPAPEAAAPQAAQGNPYQRGPDPTVAAIEASRGPFATAQMSVAPGNGFNGGVVYYPTDTSLGTWGALAIVPGYTALCADEEAWMGPWLSSFGFAVICVETNTRTDDAGTRASELLAGLDWLTTQSPVRAEIDPNRLSVLGHSAGGAGAIIAAERRPALKAMIGLAPGFPGNGLSMATDTVPTLVVGGQNDTVVTPSYLSGLYATLPAGTQSGFAQIAGADHVYYTRPNNVEMKLLIPWLKVFVDSDTRYTQFLCPALPDPSGISAYQPKCPYVPTGGTTPPPGGQSVHAVGAGKCLTVPGADPAAGTQTDISTCDGGTGQVWTRTSSGQLTVSTGGTTMCLDAAGAGVSPGTRVQVWPCNGGSNQQWRVNANGTITGAQSGLCLDVTGASTANGALVELWTCNGGSNQQWALQ [TEP183]
RPRDSAPANPYQRGPDPTVAMIESSTGPFATTSASVPAGHGFNGGTVYYPTDTSLGTWGALAIVPGYSALFANEEAWMGPWLSSFGFVVLGVETNSRTDSADARGTELLAALDYLTTQSPVRDRVDPNRLAVLGHSAGGAGAMLAAENRPSLKAAIGLAPGSPVGNLSLATDKVPTMVLGGQNDTVVTPSYLSGLYATMPASTQSVFAQIAGADHVYYTHPNNVEMKLLIPWLKTFLDSDTRHPPFLCPAPPDPRSISIYTPKCPYVPGGGTPPGGGNTGPLHAVGAAKCLAAPPAGAAGTQVTIGGCDGRAGQTWTRTAAAELTVTPAGTPLCLDASGQGTSPGTKVIVWSCNGQANQQWNLNADGSVTAARSGLCLDVTGASTAEGAPVELWSCNGGSNQRWSLG [TEP095]
RPSAENPYERGPAPTVASIEAARGPFGTAETRVSATAVRGFGGGTIYYPTDTSQGTFGAVAVAPGFTASQSSMSWLGPRLASQGFVIFTIDTLGRYDQPAARGDQLLAALDYLTQSSSVRGRIDGSRLAVMGHSMGGGGSLEAAKDRPALQAAIPLTPWNATKNWSSVRTPTLIIGAERDSVASVAAHSEPFYASLPSTLDRAYLELAGASHFAPNVANVTIAKYSISWLKRFVDNDTRYEQFLCPLPSGSAISEYRGNCPHQG [TEP152]
RPSSAATSLAATQRGPDPTVAMIEATRGPFATAQVSVPSGHGFGGGMIYYPTDTSLGTWGALAIVPGYSALFANEEAWMGPWLSSFGFVVIGVETNTRTDSDSQRAAELQAALDYLTTQSPVRNQVDPTRLSVLGHSAGGAGAIEEAEQHPSLRALIGLAPGFPGQGLSMATDKVPSLIIGGQADGTVTPSYLANLYGTLPASTQSAFAQIAGADHVYYTHPNNVEMKLIIPWLKLFVDGDNRYQQFLCPALPDPSTISAYQPKCPYTPPGGSTSSSSSSTTTTTTTTSTTPTSTSSSPSGSCSATYQTQNYWPGGFQGLVTVTAGSAPISKWTVKWTLSSGQTITQVWNGTLSTSGSAVSVANVSYNGSLSPGTSTTFGFLANGPTSAPTLSCTGS [ESM039]
RSAPDAAAPRAASGNPYQRGPDPTVASIEATRGPFATAQLNVAPGNGFNGGVVSYPTDTSLGTWGALAIVPGYSALCADEEAWMGPWLSSFGFVVICVETNTRTDSADARAAELLAALNWLTTQSPVKGQIDPGRLSVLGHSAGGAGAILAAERQPSLKAMIGLAPGFPGNGLSMATDTVPTLVIGGQNDTVVTPSYLSGLYATLPGTTQSGFAQIAGADHVYYTRPNNVEMKLLIPWLKLFVDSDTRYSPFLCPALPDPSAVSIYQPKCPYTPPGGSTPPPSTSSGPPMSPAGGRPVHAVGAGKCLDVPGLSATAGTQTDIRTCDGGAGQLWTRASAGRLTVQTGGSTMCLDAAGRGASPGTKVQIWPCNGGSNQQWNVNANGTITGTQSGLCLDVTGGSTADGALVELWTCNGGSNQQWTSQ [TEP076]
RSGPYQVAYYTQLPPVPEFGAATLYFPANKGQDFSGVVIAPGYIEQQENISWWGNHLASHGFAVLTIDTNSLQDNPQLRAEALMAGVELLRGENTRMGGTLRGKFHEQQMAVMGHSMGGGGALLAANNSGGELKAAIPLTPWLPDGDFGAVAVPTLLISGETDRIAAVADHARLHYQSLPEELTKMYLEIKGGNHFIANSIVENEGLNPNIDVRDLVGGMA [TEP023]
SAAGNNIGHRQGGDTFASATVIEALPFSDSGTTSGFNNDYGPYSNQSSYNICQWQGYYDNTNTGAGPDVVYSLALSEEKTVKISLCGSDYDTGLGVFDGSGVQVLGNDDACSLQSEVVCALPEGLYYIVVDGYSTSSGNYVLNVSIEEDLFGPYSVGTITEDDGLRDGPDYCCGIVYYPTDAVGYLPAIVYIPGYAGTISSNENWGPYLASHGIVTMFVNANFSLASNETRAEALLDGLVTIQDENQRPGSPLYGNLNLNQLAVAGHSRGGGAALLAAAAEPSVNAVLALAPWLEDQFINSTTLDQDVPVLFLSGQLDESAPNDVHTNLFYAYTPETTDKLLYEISGGDHFIVKDPSNNSAMAMKALYWLEKYLTNDPTHC [TEP001]
SAPVHHRAATHTSAAAHHHAPFAVRTTVVPRTAVTKFGGGVIYAPLDTGKPVLGAVVITPGFTDTNANEKEMAELVASQGFVAFAIDTLTTDDLPDLRAAQMLAAADYLTGQSAVRSEVSQDDVGLIGYSFGGGGTMQAAQSRPSIKAAIGLMPFDFPPATDPNAMYPSYPKMTTPTLVITGQKDDVADPKDFGKPAYDSIPAGTPKQYLELAGIGHEGGQHVPSATIRNAVTAFLKRYLDGNSAYAKFICPAPKVGGPISASLSSCPKG [ESM131]
SASASAPAASRVQAAASGNTYQRGPDPTLSSVAASTGPFATAQVSVPAGYGFKGGMIYYPTDTSLGTWGAVAIVPGYTALFANEEAWMGPWLASFGFVVIGVETNSTTDYDTQRGTELLAALNYLTTQSPVRDRVDPTRLGVIGHSMGGGGVVYATEHQPSLKGAVALAPFSPSQSMATDTVPTMVMGGQNDTVVTPSYLAGLYATLPASTQSDFIQIAGADHIYYTHPNPVEMRILIPWLKTFLDEDTRYTQFLCPTLADPSGVSMYQSKCPYVPGGGSTPPPPAGGALHAVGAGKCVDVPNSTTTSGTQVQIYSCNGQANQAFTHNSAGELAVTDAGVTDCLDANGKGTTNGTKVIIYPCNGQPNQQWTINSNGTITGVQSGLCLDVTGASTANGALVELWTCNGGSNQKWTLS [TEP058]
SGGSSPDGPRESRQDGPSSAGPSYPSAGPLEGPYEVRTQTVGPDDVGGRFRGGTVYYPADGSRDYGVIAASPGLGADQSMVQAYGALLASHGFVLITFDTKTPQDSPAQRGRQMLDALDWAAEHSAAAGRADPDRLGVMGHSMGGGAALHAASRDPRIKAAVPLTPYAGKRDWSGVTAATLVVSGSDDEVAPPSGHARAFYDGLDDAKEKAYLELKGDHFVATPPDRLVSRQTVAWFKHFVGGDKAAGEDLCPAPREERVVASRDTCPYG [TEP134]
SNPAPEPSPTPSPSPSQPSNPFQRGPNPTVASVESAGPFAVRTSRVSSAVSGFGGGTIYYPSGTTGTMAAIVVIPGYVSSQSSIEWWGPRLASNGFVVMTIDTNATTDQPPARARQINAALDYLIAQNRASGSPVNGMIDTSRLGVVGWSMGGGGTLRVASEGRIKAAIPLAPWDTTTFRNVKAPTLIFACESDTIAPVRNHASPFYNQVPTSIPKAFVQLNRGNHYCANGGNAFNADLSRLGVSWMKRFLDNDRRFSQFLCGPN [ESM016]
SPPIVRYDYAPGKYSGNGPYSYSTYQLPGWSPGATVYYPTNASPPFSGIVFCPPYTGTQSNFAAWGPFFASHGIVLVTMDTSSTLISVDQRAIEQRMVLDLLKAERNRPGSPLYNKIDPERVGAMGWSMGGGASWINSAEYPGLKTAMSLAGHHLTAINPNAKGYGTQCPTIIFCGLLDQTILGGMLQSETVYYNIPSGIPKVFYEVSTAGHFVWYSPTAANSHVAELALAFQKTFLDGDTRWEQYIEEPLFD [TEP034]
SPVLALVAGPALANPYQRGPDPTDASITAETGPFKTASVVVPSNTDPGFAGGTIYYPTDTSQGTFAPIVVTPGFVSPQWAISWYGPRLASQGFVVMTIDTLGLFDVVDQRGKEMLAALDYLTNRSAVKDRIDPTRPGLMGHSMGGGGVIRAAAERPGIKAVVPLAPWDPNSSYAWNVKADTLVVGGESDMIAPVAANAEPIYKDLRSAPEKAYLELSGADHVFAFNLPNTTIAKYAIAWMKRFLDDDVRYDRFLCPAPAPGGAIKQYQDTCPNG [TEP158]
SQGTFGAAVVSPGFLSPQVAWAGPRIASHGFVVLTIDTNTIFDSPTSRSQQLQAALSYLVSPASGVANRIDPSRLAAMGHSMGGGGTLELAARLPTLQAAVPLQPWDIAQSFSGIRVPTMIIGAQADFIAPVASHSEPFYQQVPATTEKAYLEVAGADHLIGLLGNPTQARYSVAWLKRYVDDDTRYDQFICPPPSGPTISEYRNTCPP [TEP153]
SSVNCDSLAQIALLNPGPYSVSSLDESDNIRNGPDYAGAHIYYPTNASGSLSSIVLVPGFMNFESTLQNWGPFLAAHGIVTMTIGANYLTDSPTHRKEALLDAIVTLKAEQTRIGSPLYYSLNINNFAVGGFSMGGGGAQLAAVSDPTIKAIIALNPYLSNASEADFNHNCPVLITSGELDFIANPNLHANVHYAVTPDSTPKQLYEIQNAGHDPLIGPNGGYGEVGMKVLSWLQAFLNDNHCYCPPILTVPTTASSFTHNIVCEDLFIQGCTDSTACNYNPNATIDDGSCETQSCACPGDLNGDYAITVADVLLTLSEFGCMTNCTADIDGDGFVNVTDILELLSMFGTVC [TEP145]
STPAHHAAARTAAHHHAPFAVRATVVPKTAVKAFGGGVIYTPQDTGKAVLGAVVITPGFTDTSADEKEMAELVASQGFVAFAIDTLDTGDLPDQRATEILAAADYLTGQSAVRSEVSAKDVGLIGYSFGGGGTMQAAQARPSIKAAIGLMPYDFPPADQPDAQYPAYPKLTTPTLVITGQKDDLAVPAEFGKPAYDSIPAGTPKQYLELKGLGHAAGEHVPVATIRTAVTAFLKRYLDGNSAYAKYICPAPKVGGPISASTSSCPKG [TEP196]
STPVHHAAARTAVPHHAPFAVRTTVVPKTAVKAFGGGVIYTPQDTGKPVLGAVVITPGFTDTNADEKATAELVASQGFVAFAIDTLDVYDLPDQRATEMLAAADYLTGTSAVKSEVSANDVALLGYSFGGGGTMQAAQSRPSIKAAVTLMPYDFPPADQPDAQYPAYPKLTVPTLVITGQKDDVAVPADFGKPAYDSIPAGTPKQYLELKGLDHYAGHRAPTPTIRTAVTAFLKRYLDGNSAYAKFICPAPKVGGPITASISSCPKG [ESM164]
